# Measured values from patent US5814603A, “Compounds with PTH activity” (Affymax Technologies N.V., priority 1993, dated 1998).
# Ends that are not written are not given here.
# Assays:
# full length PTH-R = biological target: T1, full length PTH-R (Didelphis virginiana, UniProt P25107); settings: native opossom kidney cells; Juppner et al. (1991); cited from earlier work
# T1 construct: host or cells: native opossum kidney cells
# [1] = Isoelectric focusing (IEF) of the purified peptide; format: physicochemical; settings: HPLC-purified peptide after CNBr cleavage
# Experimental: The precipitated PTH polymer was then dissolved in 70% formic acid, and a 500-fold (100 to 1000-fold excess can be used) molar excess of CNBr was added. […] After CNBr cleavage, the peptides were lyophilized and resuspended in distilled water. The peptide was purified resuspended in Buffer A (0.1% TFA) and further purified by HPLC using a VYDAC C-18 Hamilton semi-preparative column. Approximately 30 mg of peptide was injected onto the column. The peptide was then eluted with a gradient of 20-40% acetonitrile/0.1% TFA over 40 minutes. The major peak, eluting at approximately 15 minutes, was collected and lyophilized to dryness. Analysis of this peptide by SDS-PAGE and IEF indicated a single species of approximately 4000 daltons with an isoelectric point of approximately 8.7.
# PTH receptor = biological target: T2, PTH receptor (Rattus norvegicus, UniProt P25961); assay: PTH analog activity assay: intracellular cAMP concentration in UMR106 cells; format: cell-based; settings: rat osteosarcoma cell line UMR106, cAMP by scintillation proximity assay, 1 mM IBMX, 5 minutes at room temperature
# T2 construct: host or cells: UMR106 rat osteosarcoma cells
# T2 sequence (P25961 27-591): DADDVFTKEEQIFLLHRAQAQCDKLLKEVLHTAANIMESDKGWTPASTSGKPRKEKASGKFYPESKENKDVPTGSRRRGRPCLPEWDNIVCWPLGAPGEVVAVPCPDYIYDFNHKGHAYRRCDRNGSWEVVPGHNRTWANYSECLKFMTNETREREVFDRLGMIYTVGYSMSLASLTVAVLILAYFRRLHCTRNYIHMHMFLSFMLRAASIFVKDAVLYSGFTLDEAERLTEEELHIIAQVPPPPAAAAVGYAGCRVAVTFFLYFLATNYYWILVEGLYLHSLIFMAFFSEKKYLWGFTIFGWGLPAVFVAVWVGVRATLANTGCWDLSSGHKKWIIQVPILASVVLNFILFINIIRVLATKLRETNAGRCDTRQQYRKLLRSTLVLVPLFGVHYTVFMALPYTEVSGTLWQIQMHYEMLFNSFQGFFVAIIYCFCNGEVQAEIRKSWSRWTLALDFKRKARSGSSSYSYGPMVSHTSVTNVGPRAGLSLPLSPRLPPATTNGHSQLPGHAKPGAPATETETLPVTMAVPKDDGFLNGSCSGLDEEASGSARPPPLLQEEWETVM
# Experimental: PTH concentrations were determined by OD280 using an extinction coefficient of 6600 for the recombinant peptide and 5500 for the synthetic peptide. The rat osteosarcoma cell line UMR106 (ATCC CRL 1661) was used for in vitro testing of the peptide's ability to activate the PTH receptor. Activation of the PTH receptor leads to an intracellular rise in cAMP concentration.
# The UMR106 cells were plated at 1.2×10^5 per well in a 48 well dish. The media (DMEM with fetal calf serum) was removed, and 1 mL of fresh media was applied. PTH (recombinant or synthetic) at various concentrations and 3-isobutyl-1-methyl xanthine (IBMX) at 1 mM final concentration were then added to each well of the plate, which was then incubated for 5 minutes at room temperature. The media was then removed and the cells quickly washed with PBS. The cells were then extracted three times with 1 mL of absolute ethanol. The three extractions were combined and the ethanol removed by evaporation in a "speed vac" centrifuge. The extract was then redissolved in 0.5 mL of buffer (0.05M NaAcetate, pH=5.8, and 0.01% azide). The cAMP concentration was determined by scintillation proximity assay using a kit available from Amersham.
# T1 sequence (P25107 27-585): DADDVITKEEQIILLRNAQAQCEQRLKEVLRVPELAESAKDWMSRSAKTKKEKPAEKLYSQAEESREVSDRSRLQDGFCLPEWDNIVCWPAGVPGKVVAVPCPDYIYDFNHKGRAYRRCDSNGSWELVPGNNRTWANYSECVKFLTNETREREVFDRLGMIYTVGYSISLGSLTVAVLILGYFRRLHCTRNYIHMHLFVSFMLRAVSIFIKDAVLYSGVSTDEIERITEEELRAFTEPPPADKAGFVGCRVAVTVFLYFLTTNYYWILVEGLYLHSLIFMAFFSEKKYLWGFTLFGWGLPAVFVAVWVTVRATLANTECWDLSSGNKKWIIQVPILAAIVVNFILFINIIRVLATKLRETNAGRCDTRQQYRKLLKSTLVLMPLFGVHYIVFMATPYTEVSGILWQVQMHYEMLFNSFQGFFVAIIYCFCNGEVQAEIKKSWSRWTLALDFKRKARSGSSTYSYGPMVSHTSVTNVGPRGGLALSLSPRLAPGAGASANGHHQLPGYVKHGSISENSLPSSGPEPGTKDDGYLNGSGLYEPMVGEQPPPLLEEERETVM
activity relative to synthetic human PTH (more active) (PTH receptor),Substance,Kd (full length PTH-R),isoelectric point [1]
–,"PTH (1-34): PTH ligand bound by the native full length PTH receptor, per Juppner et al. 1991",~0.5 nM,–
2-to-10 fold,recombinant PTH analog: 35 amino acid Ho/Hol PTH analog (SEQ ID NO:4/5) from CNBr cleavage of 8-mer fusion protein expressed from pBAD/PTH/OC in E. coli (SVSEIQLLHNLGKHLNSLERVEWLRKKLQDVHNYX; X: randomised place (mixture); also: X35: homoserine or homoserine lactone (mixture)),–,approximately 8.7
